Results reported in the supplement of paper PMC10567573.

B1: RIPK4 (parent)
chain: VIDLFDEQGLSALHLAAQGRHAQT
B2: SLC35F2 (parent)
chain: SFMPLVIKVTSATSVNLGILTADL

Variants of: B1
Assay: protein stability index of a GFP-peptide fusion (GPS, HEK-293T) (PSI 1-6); higher = more stable
Conditions: c terminus: a fixed tail appended
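Note: lentivirally expressed fusions sorted by FACS into six bins by GFP to DsRed ratio, PSI derived from sequencing read proportions per bin multiplied by bin number.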

Variant | protein stability index
VIDLFDEQGLSALHLAAQGMHAQT | 2.58
VIDLFDEQGLSALHLAAQRRHAQT | 2.44
VIDLFDEQGLSALHLAAQMRHAQT | 1.64
VIDLFDEQGLSALHLAAQTRHAQT | 2.37
VIDLFDEQGLSALHLAAQHRHAQT | 2.59
VIDLFDEQGLSALHLAAQARHAQT | 2.57
VIDLFDEQGLSALHLAAQLRHAQT | 1.63
VIDLFDEQGLSALHLAAQWRHAQT | 1.99
VIDLFDEQGLSALHLAAQKRHAQT | 3.13
VIDLFDEQGLSALHLAAQFRHAQT | 1.91
VIDLFDEQGLSALHLAAQVRHAQT | 1.71
VIDLFDEQGLSALHLAAQDRHAQT | 3.55
VIDLFDEQGLSALHLAAQPRHAQT | 2.76
VIDLFDEQGLSALHLAAQQRHAQT | 3.07
VIDLFDEQGLSALHLAAQIRHAQT | 1.42
VIDLFDEQGLSALHLAAQSRHAQT | 2.99
VIDLFDEQGLSALHLAAQYRHAQT | 2.66
VIDLFDEQGLSALHLAAQCRHAQT | 2.25
VIDLFDEQGLSALHLAAQNRHAQT | 3.03
VIDLFDEQGLSALHLAAQERHAQT | 3.37
VIDLFDEQGLSALHLAGQGRHAQT | 2.72
VIDLFDEQGLSALHLAMQGRHAQT | 1.99
VIDLFDEQGLSALHLAQQGRHAQT | 2.98
VIDLFDEQGLSALHLAVQGRHAQT | 2.92

Variant | protein stability index
VIDLFDEQGLSALHLACQGRHAQT | 2.54
VIDLFDEQGLSALHLAWQGRHAQT | 1.75
VIDLFDEQGLSALHLATQGRHAQT | 2.7
VIDLFDEQGLSALHLARQGRHAQT | 3.17
VIDLFDEQGLSALHLAPQGRHAQT | 2.82
VIDLFDEQGLSALHLALQGRHAQT | 1.98
VIDLFDEQGLSALHLAEQGRHAQT | 3.54
VIDLFDEQGLSALHLAKQGRHAQT | 2.8
VIDLFDEQGLSALHLAYQGRHAQT | 2.49
VIDLFDEQGLSALHLANQGRHAQT | 3.13
VIDLFDEQGLSALHLADQGRHAQT | 3.84
VIDLFDEQGLSALHLAFQGRHAQT | 2.47
VIDLFDEQGLSALHLAHQGRHAQT | 2.72
VIDLFDEQGLSALHLAIQGRHAQT | 2.69
VIDLFDEQGLSALHLASQGRHAQT | 2.83
VIDLFDEQGLSALHLAAQGRHNQT | 3.09
VIDLFDEQGLSALHLAAQGRHRQT | 3.13
VIDLFDEQGLSALHLAAQGRHSQT | 2.91
VIDLFDEQGLSALHLAAQGRHLQT | 2.1
VIDLFDEQGLSALHLAAQGRHGQT | 2.73
VIDLFDEQGLSALHLAAQGRHEQT | 3.61
VIDLFDEQGLSALHLAAQGRHMQT | 2.4
VIDLFDEQGLSALHLAAQGRHDQT | 3.03
VIDLFDEQGLSALHLAAQGRHFQT | 2.19

Variant | protein stability index
VIDLFDEQGLSALHLAAQGRHQQT | 3.15
VIDLFDEQGLSALHLAAQGRHVQT | 2.42
VIDLFDEQGLSALHLAAQGRHWQT | 1.57
VIDLFDEQGLSALHLAAQGRHHQT | 2.87
VIDLFDEQGLSALHLAAQGRHCQT | 2.32
VIDLFDEQGLSALHLAAQGRHYQT | 2.23
VIDLFDEQGLSALHLAAQGRHIQT | 2.14
VIDLFDEQGLSALHLAAQGRHPQT | 2.79
VIDLFDEQGLSALHLAAQGRHTQT | 3.03
VIDLFDEQGLSALHLAAQGRHKQT | 3.17
VIDLFDEQGLSALHHAAQGRHAQT | 3.3
VIDLFDEQGLSALHVAAQGRHAQT | 3.07
VIDLFDEQGLSALHRAAQGRHAQT | 2.94
VIDLFDEQGLSALHEAAQGRHAQT | 3.47
VIDLFDEQGLSALHNAAQGRHAQT | 3.8
VIDLFDEQGLSALHSAAQGRHAQT | 4.01
VIDLFDEQGLSALHGAAQGRHAQT | 3.74
VIDLFDEQGLSALHQAAQGRHAQT | 3.3
VIDLFDEQGLSALHPAAQGRHAQT | 3.37
VIDLFDEQGLSALHIAAQGRHAQT | 2.81
VIDLFDEQGLSALHKAAQGRHAQT | 3.39
VIDLFDEQGLSALHMAAQGRHAQT | 3.09
VIDLFDEQGLSALHFAAQGRHAQT | 2.41
VIDLFDEQGLSALHTAAQGRHAQT | 3.51

Variant | protein stability index
VIDLFDEQGLSALHYAAQGRHAQT | 2.32
VIDLFDEQGLSALHWAAQGRHAQT | 2.26
VIDLFDEQGLSALHLAAQGRGAQT | 2.86
VIDLFDEQGLSALHLAAQGRIAQT | 2.28
VIDLFDEQGLSALHLAAQGRTAQT | 3.07
VIDLFDEQGLSALHLAAQGRMAQT | 2.56
VIDLFDEQGLSALHLAAQGRDAQT | 3.18
VIDLFDEQGLSALHLAAQGRSAQT | 2.76
VIDLFDEQGLSALHLAAQGRQAQT | 3.23
VIDLFDEQGLSALHLAAQGRKAQT | 3.41
VIDLFDEQGLSALHLAAQGRVAQT | 2.72
VIDLFDEQGLSALHLAAQGRLAQT | 2.66
VIDLFDEQGLSALHLAAQGRYAQT | 2.47
VIDLFDEQGLSALHLAAQGRFAQT | 2.22
VIDLFDEQGLSALHLAAQGRNAQT | 3.06
VIDLFDEQGLSALHLAAQGRPAQT | 3.01
VIDLFDEQGLSALHLAAQGREAQT | 3.32
VIDLFDEQGLSALHLAAQGRCAQT | 2.89
VIDLFDEQGLSALHLAAQGRRAQT | 2.24
VIDLFDEQGLSALHLAAQGRWAQT | 1.9
VIDLFDEQGLSALHLAAQGRAAQT | 2.41

Variants of: B2
Assay: as above
Conditions: c terminus: a fixed tail appended

Variant | protein stability index
SFMPLVIKVTSAFSVNLGILTADL | 2.53
